1 molecule from CN116284426A can be followed below.

The target of experiment [1] is CD3εδ-ECD-his (CD3εδ异二聚体蛋白) (UniProt P07766). Nature of the experiment: ELISA, CD3εδ-ECD-his coated at 1 ug/mL (Table 20). Background: An ELISA detects its analyte on a solid surface through an enzyme-linked reagent.
The target is the same in experiment [2]. Nature of the experiment: ELISA, CD3εδ-ECD-his coated at 1 ug/mL, anti-human IgG Fab HRP (Table 15).

Usually EC50 stands for the midpoint of the concentration-response curve. Read a high EC50 as lower potency in that assay.

B1: SP34 (humanized anti-CD3 monoclonal antibody) (antibody, human IgG1, kappa, V domains shown)
VH: EVQLVESGGGLVQPGGSLRLSCAASGFTFNTYAMNWVRQAPGKGLEWVARIRSKYNNYATYYADSVKDRFTISRDDSKNTLYLQMNSLRAEDTAVYYCVRHGNFGNSYVSWFAYWGQGTLVTVSS
VL: QAVVTQEPSLTVSPGGTVTLTCRSSTGAVTTSNYANWVQQKPGQAPRGLIGGTNKRAPGVPARFSGSLLGGKAALTLSGAQPEDEAEYYCALWYSNLWVFGQGTKVEIKR
Take B1: the EC50 in experiment [1] worked out at 0.118 nM; in experiment [2], 0.13 nM.
